Sequences and labels used below:
B1: CopC ΔN50 (recombinant) (domain or fragment)
chain: AAGKIGAFLRKAVAAQSYGLMFANGKLFEATGDALEKRGQYGFSALQRLDGLSRRNLAAVEARLGALDSAERGLKERIMTGAWHFRHQSNAALDDGKTAAIASNHLLARESRSSGGNTFAGDKALLSNHDFVFFGVEFSGRGKQDKPLNHKHSTMDFGANAYVVPDTLPACRHGYLTLTDHFFNRVPGGREAEHQDFVGSFPQMGAETGRWIHEGKYRQNAPIFNYRDMKAAVALHLIEFLRDSKDAAFKAYVFDQAMQSGQALDRVLNSVFQAEFHIPRLMATTDYAKHPLRPMLLKEAVDSVNLPALSGLVSSKGDAVTAMWHAIDKGKDAVAAHLLGNWRFEAGDFASAPPGFYHELNYALSEHGASVYILDQFLSRGWAAVNAPFEHVNSGETMLDNAVKYGNREMAAALIKHGADRNLLSEWNGGKLDALLA
notes: also called CopC Δ50; source: E. coli BL21(DE3), purified (glutathione-Sepharose, GST removed by PreScission protease)
B2: caspase-7 p30 (C186A), ΔN23 (enzyme, human, UniProt P55210 24-303, looked up)
chain: AKPDRSSFVPSLFSKKKKNVTMRSIKTTRDRVPTYQYNMNFEKLGKCIIINNKNFDKVTGMGVRNGTDKDAEALFKCFRSLGFDVIVYNDCSCAKMQDLLKKASEEDHTNAACFACILLSHGEENVIYGKDGVTPIKDLTAHFRGDRCKTLLEKPKLFFIQAARGTELDDGIQADSGPINDTDANPRYKIPVEADFLFAYSTVPGYYSWRSPGRGSWFVQALCSILEEHGKDLEIMQILTRVNDRVARHFESQSDDPHFHEKKQIPCVVSMLTKELYFSQ
notes: also called CASP7 p30^C186A; caspase-7 p30 (C/A); source: E. coli BL21(DE3), purified (Ni-Sepharose)

One test deals with T1, recombinant CaM (human, UniProt P0DP23 1-149).
T1 construct: also called calmodulin; Ca^2+-free CaM
The test is described as follows: SEC. Particulars: both partners purified.

The target of the test “CopC ΔN50 (recombinant)” is B1. As to the kind of experiment: SEC. Particulars: both partners purified.

Turning to B1, the binding result in the test with recombinant CaM was “binds”.

For the molecule B2, the binding result with CopC ΔN50 (recombinant) is “binds”.
